In IntAct's records for PubMed 20562859:

Molecular target: T1, tbd2b_human TBC1D2B (UniProt Q9UPU7)
T1 sequence: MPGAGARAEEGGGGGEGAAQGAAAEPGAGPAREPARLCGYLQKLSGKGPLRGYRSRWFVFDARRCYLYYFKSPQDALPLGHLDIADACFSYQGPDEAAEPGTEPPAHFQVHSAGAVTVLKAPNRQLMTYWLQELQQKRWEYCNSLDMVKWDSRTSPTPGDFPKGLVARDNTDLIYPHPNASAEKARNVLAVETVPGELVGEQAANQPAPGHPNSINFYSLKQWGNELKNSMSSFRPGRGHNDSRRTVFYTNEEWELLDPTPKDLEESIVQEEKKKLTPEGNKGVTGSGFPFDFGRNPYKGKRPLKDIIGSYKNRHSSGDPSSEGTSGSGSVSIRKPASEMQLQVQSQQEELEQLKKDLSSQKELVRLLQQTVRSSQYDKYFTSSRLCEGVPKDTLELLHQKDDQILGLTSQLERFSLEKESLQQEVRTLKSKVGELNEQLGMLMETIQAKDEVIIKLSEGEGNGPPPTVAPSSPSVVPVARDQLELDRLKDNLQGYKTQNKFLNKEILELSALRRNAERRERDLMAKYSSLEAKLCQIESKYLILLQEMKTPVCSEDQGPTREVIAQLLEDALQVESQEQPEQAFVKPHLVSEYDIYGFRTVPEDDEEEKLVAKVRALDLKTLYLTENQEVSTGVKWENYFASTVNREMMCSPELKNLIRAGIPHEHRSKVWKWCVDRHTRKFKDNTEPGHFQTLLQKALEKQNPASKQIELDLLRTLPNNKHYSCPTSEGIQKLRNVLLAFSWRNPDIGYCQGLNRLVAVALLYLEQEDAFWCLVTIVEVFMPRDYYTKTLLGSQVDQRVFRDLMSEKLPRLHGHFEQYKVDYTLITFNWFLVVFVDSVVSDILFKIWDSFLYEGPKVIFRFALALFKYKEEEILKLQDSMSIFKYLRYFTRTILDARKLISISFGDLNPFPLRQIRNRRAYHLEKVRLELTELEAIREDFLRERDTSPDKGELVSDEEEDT

## Microtubule-associated protein 1 light chain 3 beta (Homo sapiens) (from UniProt Q9GZQ8) R69A
  effect of a mutation on the interaction: disrupting interaction
